Results published in paper PMC4610036 (Journal of molecular catalysis. B, Enzymatic, 2015).

Target: the molecule itself
Test: crystal structure

B1: β-ketoacyl thiolase B of Ralstonia eutropha (enzyme, UniProt Q0KBP1 1-394, looked up)
chain: MTREVVVVSGVRTAIGTFGGSLKDVAPAELGALVVREALARAQVSGDDVGHVVFGNVIQTEPRDMYLGRVAAVNGGVTINAPALTVNRLCGSGLQAIVSAAQTILLGDTDVAIGGGAESMSRAPYLAPAARWGARMGDAGLVDMMLGALHDPFHRIHMGVTAENVAKEYDISRAQQDEAALESHRRASAAIKAGYFKDQIVPVVSKGRKGDVTFDTDEHVRHDATIDDMTKLRPVFVKENGTVTAGNASGLNDAAAAVVMMERAEAERRGLKPLARLVSYGHAGVDPKAMGIGPVPATKIALERAGLQVSDLDVIEANEAFAAQACAVTKALGLDPAKVNPNGSGISLGHPIGATGALITVKALHELNRVQGRYALVTMCIGGGQGIAAIFERI
stoichiometry N: 4
